How the values were obtained:
NF90long;NF45 [1] = target: T1, NF90long;NF45 (Mus musculus;Homo sapiens, UniProt Q9Z1X4;Q12905 1-591;1-390, |); test: SEC and EDC cross-linking (SDS-PAGE, CLMS); protein:RNA 1:1 and 2:1; 18-bp complex formation: 30 min on ice, SEC in 20 mM HEPES pH 7.5, 150 mM NaCl, 1 mM DTT; mass photometry at 10-50 nM protein; SAXS and EM buffers not in the material; details: protein: recombinant;recombinant; tags: C-terminal 6xHis (non-cleavable);N-terminal GST, removed with 3C protease; copies: 1;1; blunt
NF90long;NF45 [2] = target: T1, NF90long;NF45; test: quantitative EDC CLMS; 18-bp complex formation: 30 min on ice, SEC in 20 mM HEPES pH 7.5, 150 mM NaCl, 1 mM DTT; mass photometry at 10-50 nM protein; SAXS and EM buffers not in the material; details: protein: recombinant;recombinant; tags: C-terminal 6xHis (non-cleavable);N-terminal GST, removed with 3C protease; copies: 1;1; blunt
NF90long;NF45 [3] = target: T1, NF90long;NF45; test: SEC-SAXS; mass photometry; protein:RNA 2:1 and 4:1; RNA saturated at 4:1; 18-bp complex formation: 30 min on ice, SEC in 20 mM HEPES pH 7.5, 150 mM NaCl, 1 mM DTT; mass photometry at 10-50 nM protein; SAXS and EM buffers not in the material; details: protein: recombinant;recombinant; tags: C-terminal 6xHis (non-cleavable);N-terminal GST, removed with 3C protease; copies: 1;1; S13 is labelled 3'-5' but pairs only if read 5'-3' (18 bp, 7-nt 3' tails)
NF90long;NF45 [4] = target: T1, NF90long;NF45; test: SEC-SAXS; mass photometry; not more than 4 heterodimers per RNA (SAXS); up to 3 by mass photometry; 18-bp complex formation: 30 min on ice, SEC in 20 mM HEPES pH 7.5, 150 mM NaCl, 1 mM DTT; mass photometry at 10-50 nM protein; SAXS and EM buffers not in the material; details: protein: recombinant;recombinant; tags: C-terminal 6xHis (non-cleavable);N-terminal GST, removed with 3C protease; copies: 1;1; blunt

B1: 18-bp 2'-fluoro dsRNA (EDC) (XNA)
RNA 1: UCACUUUCAUAAUGCUGG
RNA 2: CCAGCAUUAUGAAAGUGA
modifications: uniform 2'-fluoro (printed beside the top strand; Methods call the duplex 2'-fluorinated)
binding result (NF90long;NF45 [1]): binds

B2: 25-bp GC-rich dsRNA (CLMS) (dsRNA)
RNA 1: GCCGCGGAGGCCCCGCCGUGGGCCC
RNA 2: GGGCCCACGGCGGGGCCUCCGCGGC
binding result (NF90long;NF45 [2]): binds

B3: 25-bp dsRNA (SAXS) (dsRNA)
RNA 1: UCACUUUCAUAAUGCUGGUCACUUU
RNA 2: CCAGCAUUAUGAAAGUGACCAGCAU
binding result (NF90long;NF45 [3]): binds

B4: 54-bp dsRNA (SAXS) (dsRNA)
RNA 1: UCACUUUCAUAAUGCUGGUCACUUUCAUAAUGCUGGUCACUUUCAUAAUGCUGG
RNA 2: CCAGCAUUAUGAAAGUGACCAGCAUUAUGAAAGUGACCAGCAUUAUGAAAGUGA
binding result (NF90long;NF45 [4]): binds

From PMC11952958, “Integrative structural analysis of NF45–NF90 heterodimers reveals architectural rearrangements and oligomerization on binding dsRNA”
